Assay results reported in patent publication US20240116999A1 (TRUSTEES OF INDIANA UNIVERSITY, published 2024).
Bridge positions count the residues as written; N and C are the ends. Square brackets hold non-standard residues; d marks the D form. Ends that are not written are not given here. Orn = NCCC[C@H](N)C(=O)O

Biological target: glucagon receptor (GCGR)
Assay: cell-based or functional assay

| EC50, cell-based cyclic AMP (cAMP) activity assay | Binder |
| --- | --- |
| 0.126 µM | HSQGTFTSDYS[Orn]KLDSE[Orn]AQDFVQWLMNTEEK (lactam 13-17) [O12, O18, K13, E17-Lactam-Glucagon-EEK] |
| 0.0935 µM | HSQGTFTSDYS[Orn]YLDS[Orn][Orn]AQDFVQWLMNTEEK [Glucagon-EEK] |
